From publication PMC12120770, “Unveiling Structural Heterogeneity and Evolutionary Adaptations of Heteromultimeric Bacterioferritin Nanocages” (Advanced Science, 2025)

B1: SoBfr1, heme-free subunit of the Shewanella oneidensis hetero-bacterioferritin SoBfr12 (natural protein)
chain: MKGDKDVIDALNRLLTGELSAMDQYFVHAHMYEDWGLNELYERIAHESDDEKGHAAKLVQRILFLEGVPNVAAREALNIGSNVEEMLRNDLAYEYKVADDLRKVIALCEQKKDYQTREILEVLLDDTESDHMYWLEKQLGLIDRIGLANYLQTKM
notes: SoBfr1, heme-free bacterioferritin subunit of Shewanella oneidensis, amplified from genomic DNA together with SoBfr2; Expressed from one DNA fragment encoding SoBfr2 and SoBfr1 with a Strep-tag II; not shown: Strep-tag II, C-terminal, kept
B2: SoBfr2, heme-binding subunit of the Shewanella oneidensis hetero-bacterioferritin SoBfr12 (natural protein)
chain: MKGHPKVVGQLNRVLTCELTAINQYFLHARMFKHWGLEKLNHVEYKKSIEDMKHADKLIERVLFLEGLPNLQQLEKLRIGEHAQEMLDCDLAMVQEQLTLLRDAITLCEAEQDYVSRDLLEDILEDEEEHLDWLESQRELIGLTGIQNYLQSQISES
B3: PaBfrB, Pseudomonas aeruginosa homo-bacterioferritin subunit (natural protein)
chain: not shown
notes: also called homo-Bfr

What was measured:
[1] = biological target: the molecule itself; test: cryo-EM structure; single-particle cryo-EM of purified SoBfr12 (1.7 mg mL^-1), subunits co-expressed in E. coli; refined with C1 symmetry, 2.62 Å
[2] = biological target: the molecule itself; test: native gel or EMSA; purified PaBfrB on 6% native PAGE, Tris-glycine pH 8.3, 4 °C

Protein | stoichiometry N [1] | binding result [2]
B1 | 2 | 
B2 | 2 | 
B3 |  | binds
